In paper PMC10983988:

T1: m-TREX1 (Three Prime Repair Exonuclease 1, catalytic domain) (mouse, UniProt Q91XB0 1-242)
T1 sequence: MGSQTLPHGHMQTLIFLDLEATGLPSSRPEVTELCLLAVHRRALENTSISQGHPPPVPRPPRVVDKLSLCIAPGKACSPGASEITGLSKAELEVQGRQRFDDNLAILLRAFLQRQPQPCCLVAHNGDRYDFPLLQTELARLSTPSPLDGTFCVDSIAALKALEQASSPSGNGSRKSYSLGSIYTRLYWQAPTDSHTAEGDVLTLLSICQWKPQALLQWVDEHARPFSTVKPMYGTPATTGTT

B1: U3 3'-processed (dsDNA)
DNA 1: AGTGAATTAGCCCTTCCA
DNA 2: ACTGGAAGGGCTAATTCACT
B2: U3 unprocessed (dsDNA)
DNA 1: AGTGAATTAGCCCTTCCAGT
DNA 2: ACTGGAAGGGCTAATTCACT

Biological target: T1, m-TREX1 (Three Prime Repair Exonuclease …)
Test: fluorescence polarization anisotropy

| Binder | Kd [nM] |
| --- | --- |
| B1 | 216 ± 4.6 |
| B2 | 118 ± 8.4 |
